Entries after “also recorded” stand apart in the source; their conditions may differ.
Experiments:
[1] = test system: live Cal12T human lung cancer cells; assay: Live cell penetration of FITC-labeled 4H2, fluorescence microscopy; format: cell-based; conditions: FITC-labeled 4H2 4 mg/mL, one hour
Procedure: (§1) To confirm that 4H2 penetrates live cells and exclude the observation as a fixation artifact, FITC-labeled 4H2 was applied to live Cal12T and A549 human lung cancer cells at 4 mg/mL for one hour. Cells were also treated with Hoechst and MitoTracker stains to allow detection of nuclei and mitochondria, respectively. Cells were then washed and visualized under a fluorescence microscope.

[2] = test system: live A549 human lung cancer cells; assay: as above; format: cell-based; conditions: FITC-labeled 4H2 4 mg/mL, one hour
Procedure: as §1

[3] = test system: PEO1 human ovarian cancer cells; assay: Cell penetration, immunostaining of fixed cells after one hour treatment; format: cell-based; conditions: washed, alkaline phosphatase-conjugated anti-mouse antibody
Procedure: The ability of 4H2 to penetrate into live cells was tested. PEO1 human ovarian cancer cells were treated with control media or media containing 4H2 or 3E10 (as a positive control) for one hour, and then cells were washed, fixed, and immunostained with an alkaline phosphatase-conjugated anti-mouse antibody.

[4] = test system: G12C K-Ras-mutant Cal12T lung cancer cells; assay: Clonogenic survival by colony formation assay; format: cell-based, human
Procedure: (§2) FIG. 2A is a line graph showing the effects of 4H2 on a matched pair of isogenic parental (WT) and G12C K-Ras-mutant (KRAS) Cal12T lung cancer cells. Clonogenic survival was measured by colony formation assay (*p<0.02. N=6). FIGS. 2B and 2C are line graphs showing H441 (2B) and H358 K-Ras (2C) addicted human lung cancer cells (G12V and G12C mutations, respectively) treated with control media or media containing 4H2. Surviving fractions were determined by colony formation assay (*p<0.01. N>3). FIG. 2D is a line graph showing the effect of 4H2 on tumor volume (mm^3) of H358 tumor xenografts generated in the flanks of nude mice by subcutaneous injection of tumor cells. Once tumors reached ˜100 mm3 volume mice were treated with direct tumor injection of 50 uL of control PBS or PBS containing 0.5 mg/mL 4H2 twice a week for three weeks. Tumor volumes were monitored, and growth curves are shown. […] N=3 mice per group.
(§3) Aberrations in cell signaling caused by activating mutations in small GTPases such as the Ras family of proteins are found in ˜30% of malignancies, and K-Ras is one of the most frequently mutated small GTPases (Adjei, J Natl Cancer Inst, 93:1062-1074 (2001), Gysin, et al., Genes Cancer, 2:359-372 (2011)). Development of therapies that are preferentially toxic to K-Ras mutant cancer cells is a major goal in oncology. […]

[5] = test system: parental (WT) Cal12T lung cancer cells; assay: Clonogenic survival by colony formation assay; format: cell-based, human; conditions: WT K-Ras
Procedure: as §2, §3

[6] = test system: Akt phosphorylation in SW48 human colon cancer cells; assay: Western blot of phospho-Akt; format: cell-based; conditions: 1 mg/mL, 4 hours
Procedure: FIG. 1A is a line graph showing the effect of 4H2 on release Pi from GTP as measured by colorimetric assay (N=2). FIG. 1B is a bar graph showing the relative amounts of phospho-Akt in Cal12T cells treated with 1 mg/mL 4H2 at 4 and 24 hours relative to control (*p<0.05. N=4). FIG. 1C is a bar graph showing the relative amounts of phospho-Akt in SW48 human colon cancer cells treated with 1 mg/mL 4H2 at 4 hours relative to control (*p<0.05. N=2).
(§4) Cell lysates were prepared and run on 4-15% SDS-PAGE gradient gels, followed by transfer to membranes. Membranes were then blocked and incubated with the indicated primary antibodies, followed by HRP-conjugated secondary antibody and detection of bands by chemiluminescence. Band intensity measurements were taken using ImageJ.
(§5) To probe the effect of 4H2 on signaling its effect on the phosphorylation of Akt was tested in cells.

[7] = preliminary findings, data not published; cited from earlier work
[8] = test system: Single-stranded M13mp18 DNA; assay: Nucleolytic assay; format: biochemical; conditions: 0.5 mg/mL antibody, 37° C., 10 minutes
Procedure: Single-stranded M13mp18 DNA (50 ng; New England Biolabs, Ipswich, MA) was incubated at 37° C. for 10 minutes in control binding buffer (50 mM Tris-HCl, 100 mM NaCl, 10 mM MgCl2) or binding buffer containing 0.5 mg/mL 4H2, 3E10, or 5C6.
An intriguing feature of some anti-DNA antibodies is an association with catalytic activities. […] To determine if 4H2 has any effect on DNA integrity it was incubated with single-stranded M13mp18 plasmid DNA for 10 minutes and then evaluated the integrity of the DNA on an agarose gel. 3E10 and 5C6 were also included as negative and positive controls, respectively.

Cal12T cells = assay: Cell-penetration and co-localization immunofluorescence assay; format: cell-based, human
Procedure: Cal12T cells were grown on glass coverslips and treated with control media or media containing 0.5 mg/mL 4H2 for one hour. […] For co-localization studies, the fixed cells were also probed overnight with separate rabbit primary antibodies to detect endosomes (C45B10 anti-EEA1 antibody, Cell Signaling), lysosomes (D2D11 anti-LAMP1 antibody, Cell Signaling), endoplasmic reticulum (C81H6 anti-PDI antibody, Cell Signaling), golgi apparatus (D2B6N anti-RCAS1 antibody, Cell Signaling), mitochondria (3E11 anti-COX IV and D3932 anti-AIF antibodies, Cell Signaling), or K-Ras (anti-K-Ras antibody) extensively washed with PBS, and then incubated with an Alexa555-conjugated goat anti-rabbit IgG antibody (Cell Signaling). Cells were also treated with DAPI, and imaged using an EVOS fl digital fluorescence microscope (Advanced Microscopy Group, Bothell, WA) under light, DAPI, GFP, or RFP filters. Fluorescence images were merged using ImageJ (NIH, Bethesda, MD).
After confirming that 4H2 penetrates live cells, subcellular localization was investigated through immunofluorescence co-localization studies. Cal12T cells were treated with 4H2 (0.5 mg/mL) for one hour and were then washed, fixed, and immunostained with an Alexa488-conjugated anti-mouse IgG antibody. […] Cells treated with 4H2 were also co-immunostained with rabbit primary antibodies against markers of early endosomes (EEA1), lysosomes (LAMP1), Golgi (RASC1), ER (PDI), and mitochondria (COX IV), followed by detection with an Alexa555-conjugated anti-rabbit IgG antibody. Use of the Alexa488 and Alexa555-conjugated antibodies to detect 4H2 and organelle markers allowed separate visualization of 4H2 and organelle locations under GFP and RFP filters, respectively. Merging of the GFP and RFP images should yield a yellow signal in areas of co-localization. DAPI co-stain allowed visualization of nuclei in blue. Representative merged images showing DAPI, GFP, and RFP filters for each co-stain were analyzed.
To explore this, Cal12T cells treated with 4H2 were co-stained for 4H2 and K-Ras using the technique described above.

[9] = test system: H358 subcutaneous xenografts; assay: Tumor growth suppression assay; format: in vivo, nude mice; conditions: intratumoral 25 ug (50 uL of 0.5 mg/mL) twice a week for three weeks; day 15 after initiation of treatment, p<0.01
Procedure: as §2
Subcutaneous xenografts were generated in nude mice by injection of 1×10^6 H358 cancer cells. Treatment with direct intratumoral injection of 50 uL of control PBS (N=3) or 4H2 in PBS (0.5 mg/mL) (N=3) twice a week for three weeks was initiated once tumors reached ˜100 mm^3. Tumor volumes were tracked by caliper measurements. […]

[10] = GTPase assay, colorimetric Pi release from GTP; format: biochemical; conditions: 4H2 0-1 mg/mL, 30 minutes, absorbance at 630 nm
Procedure: Pi release from GTP after incubation with 4H2 (0-1 mg/mL) for 30 min was measured by colorimetric assay using the Innova GTPase activity kit.
The effect of 4H2 on Pi release from GTP was tested using a colorimetric assay. 4H2 (0-1 mg/mL) was incubated with GTP for 30 minutes, and Pi release was measured using the Innova GTPase activity kit. Concentration of Pi released was determined from absorbance at 630 nm and comparison to a free Pi standard curve. 4H2 in buffer alone was used as a blank.

[11] = test system: Akt phosphorylation in Cal12T cells; assay: Western blot of phospho-Akt; format: cell-based, human; conditions: 1 mg/mL
Procedure: as §4, §5

[12] = test system: Htori-3-LLU thyroid epithelial cells; conditions: cited from earlier work
cAMP in cultured cells = conditions: previous findings; cited from earlier work
[13] = test system: H441 K-Ras addicted human lung cancer cells; assay: Surviving fraction by colony formation assay; format: cell-based; conditions: K-Ras G12V
Procedure: as §2
(§6) Lastly, to confirm that 4H2 is toxic to K-Ras addicted cancer cells in vivo, H358 subcutaneous xenografts were generated in nude mice and treated by direct injection with control buffer or 25 ug of 4H2 twice a week for three weeks.

[14] = test system: H358 K-Ras addicted human lung cancer cells; assay: Surviving fraction by colony formation assay; format: cell-based; conditions: K-Ras G12C
Procedure: as §2, §6

ERK and Akt = conditions: cited from earlier work
DLD1 colon cancer cells = assay: 4H2 scFv cell penetration, protein L immunostaining; format: cell-based; conditions: 6 μM, one hour

B1: 4H2: monoclonal anti-guanosine antibody produced by a hybridoma from MRL/lpr; VL SEQ ID NO:1, VH SEQ ID NO:5 (antibody, listed as Mus musculus, V domains shown)
VH: EVQLQQSGPELVKPGASVKMSCKASGYTFTDYYMNWVKQSHGKSLEWIGRVNPSNGGISYNQKFKGKATLTVDKSLSTAYMQLNSLTSEDSAVYYCARGPYTMYYWGQGTSVTVSS
VL: DIVLTQSPATLSVTPGDRVSLSCRASQSISNYLHWYQQKSHESPRLLIKYASQSISGIPSRFSGSGSGTDFTLSIISVETEDFGMYFCQQSNSWPLTFGAGTKLELK
[1]
  4H2 signal in nuclei (overlay with Hoechst): absence of 4H2 signal in the nuclei
  FITC fluorescence correlating to 4H2, location: detected in the cytoplasm
  co-localization with mitochondria (MitoTracker): a distinct co-localization with mitochondria could not be confirmed
[2]
  4H2 signal in nuclei (overlay with Hoechst): absence of 4H2 signal in the nuclei
  FITC fluorescence correlating to 4H2, location: detected in the cytoplasm
  co-localization with mitochondria (MitoTracker): a distinct co-localization with mitochondria could not be confirmed
[3]
  location of antibody staining in cells: exclusively cytoplasmic staining
[4]
  clonogenic survival, sensitivity to 4H2: highly sensitive to 4H2
[5]
  clonogenic survival, sensitivity to 4H2: more resistant to its effects
[6]
  amount of phospho-Akt relative to control: reduce amounts of p-Akt
[7]
  cleavage of GTP: catalyzed cleavage of the gamma-phosphate bond in radiolabeled GTP
[8]
  effect on DNA integrity (agarose gel): neither 3E10 nor 4H2 had any discernible effects on the DNA integrity
Cal12T cells; 0.5 mg/mL, one hour
  co-localization with endosomes or lysosomes: did not colocalize with endosomes or lysosomes
Cal12T cells; 0.5 mg/mL, one hour, fixed cells
  Alexa488 signal (4H2) location: detected in the cytoplasm
Cal12T cells; 0.5 mg/mL, one hour, fixed cells, merged GFP/RFP images
  localization to organelles: early endosomes (EEA1), lysosomes (LAMP1), Golgi (RASC1), ER (PDI), mitochondria (COX IV): did not appear to directly localize to any of the organelles tested
Cal12T cells; co-stain for 4H2 and K-Ras, merged fluorescence
  co-localization with K-Ras: at least some degree of co-localization
[9]
  tumor growth / tumor volume: statistically significant difference in tumor volumes; also recorded: Detectable suppression of tumor growth
[10]
  Pi release from GTP: dose-dependent release of Pi from GTP
[11]; 24 hours
  amount of phospho-Akt relative to control: reduced the amount of phospho-Akt
[11]; four hours
  amount of phospho-Akt relative to control: reduced the amount of phospho-Akt
[12]
  association with mitochondria: appeared to associate with mitochondria
cAMP in cultured cells
  cAMP in cells: reduces cAMP in cells
[13]
  surviving fraction, sensitivity to 4H2: sensitive to 4H2
[14]
  surviving fraction, sensitivity to 4H2: sensitive to 4H2
ERK and Akt
  phosphorylation of ERK and Akt: reduce phosphorylation of ERK and Akt

B2: 4H2 scFv: single chain variable fragment of 4H2, SEQ ID NO:22: VL, linker, VH, His6 tag (protein)
scFv: DIVLTQSPATLSVTPGDRVSLSCRASQSISNYLHWYQQKSHESPRLLIKYASQSISGIPSRFSGSGSGTDFTLSIISVETEDFGMYFCQQSNSWPLTFGAGTKLELKADAAPGGGGSGGGGSGGGGSEVQLQQSGPELVKPGASVKMSCKASGYTFTDYYMNWVKQSHGKSLEWIGRVNPSNGGISYNQKFKGKATLTVDKSLSTAYMQLNSLTSEDSAVYYCARGPYTMYYWGQGTSVTVSSHHHHHH
DLD1 colon cancer cells
  cell penetration: cell-penetrating activity

Reference: patent publication US12486318B2, “Anti-guanosine antibody as a molecular delivery vehicle” (Yale University, priority 2016, dated 2025)
